The values below come from patent US20100196390A1 (RINAT NEUROSCIENCE, published 2010).

Substitutions are numbered along the chain they refer to.

B1: 11-G5 (Fab, V domains shown)
VH: QVQLVQSGAEVKKPGASVKVSCKASGYTFTNYDIIWVRQAPGQGLEWMGYINPYNGRREYNEKFKGRVTMTRDTSTSTVYMELSSLRSEDTAVYYCARLLKYRRFRYYAIDYWGQGTTVTVSS
VL: DIQMTQSPSSLSASVGDRVTITCRASENVYYNLAWYQQKPGKAPKLLIYAASNLQSGVPSRFSGSGSGTDFTFTISSLQPEDIATYYCQHFWYSPFTFGQGTKLEIK
notes: Fab
B2: 12-C8 (Fab, V domains shown)
VH: B1 VH
VL: B1 VL with E27K, Y31S, Y93G
notes: Fab
B3: 13-C11 (Fab, V domains shown)
VH: B1 VH
VL: B1 VL with Y31S, N32H, F71Y, Y93G
notes: Fab
B4: 13-C6 (Fab, V domains shown)
VH: B1 VH
VL: B1 VL with N28P, Y31S, L33V, Y93G
notes: Fab
B5: 15-G6 (Fab, V domains shown)
VH: B1 VH with G56D, R57G, R58T, E59K, R106K
VL: B1 VL with A25T, Y31S, H90Q
notes: Fab
B6: 13-H3 (Fab, V domains shown)
VH: B1 VH with G56D, R57G, E59K, Y60E
VL: B1 VL with Y31S, F71Y, Y93G
notes: Fab
B7: 13-C12 (Fab, V domains shown)
VH: B1 VH
VL: B1 VL with Y31R, F71Y, W92V
notes: Fab
B8: 16-A10 (Fab, V domains shown)
VH: B1 VH with G56D, R57G, R58T, E59K
VL: B1 VL with A25T, Y31S, F96W
notes: Fab
B9: 12-D8 (Fab, V domains shown)
VH: B1 VH
VL: B1 VL with Y31S, L33T, F71Y, Y93G
notes: Fab
B10: 13-A12 (Fab, V domains shown)
VH: B1 VH with G56D, R57G, E59K, Y60E
VL: B1 VL with Y31R, F71Y
notes: Fab
B11: 14-B1 (Fab, V domains shown)
VH: B1 VH with G56D, R57G, E59K, Y60E
VL: B1 VL with N28P, Y31S, F71Y, Y93G
notes: Fab
B12: 16-B7 (Fab, V domains shown)
VH: B1 VH with G56D, R57G, R58T, E59K
VL: B1 VL with Y31S, Q55A, S56D, Y93A
notes: Fab
B13: 12-E11 (Fab, V domains shown)
VH: B1 VH
VL: B1 VL with N28P, Y31N, F71Y
notes: Fab
B14: 13-C7 (Fab, V domains shown)
VH: B1 VH
VL: B1 VL with N28P, Y31S, F71Y
notes: Fab
B15: 11-G10 (Fab, V domains shown)
VH: B1 VH
VL: B1 VL with Y31S, Y93G
notes: Fab
B16: 12-C9 (Fab, V domains shown)
VH: B1 VH with R58T
VL: B1 VL with E27K, Y31S, H90Q
notes: Fab
B17: 13-C5 (Fab, V domains shown)
VH: B1 VH
VL: B1 VL with N28P, Y31S, F71Y, Y93G
notes: Fab
B18: 12-E9 (Fab, V domains shown)
VH: B1 VH with G56D, R57G, R58T, E59K, G66Y
VL: B1 VL with N28S, Y31N, Y93G
notes: Fab
B19: 15-H1 (Fab, V domains shown)
VH: B1 VH with G56D, R57G, R58T, E59K, R103A, R104C, Y107E, Y108E
VL: B1 VL with Y31S, Y93E
notes: Fab
B20: 13-B2 (Fab, V domains shown)
VH: B1 VH
VL: B1 VL with E27K, N28P, Y31S, F71Y, Y93G
notes: Fab
B21: 13-D5 (Fab, V domains shown)
VH: B1 VH
VL: B1 VL with Y30T, Y31S, F71Y, Y93G
notes: Fab
B22: 13-B3 (Fab, V domains shown)
VH: B1 VH
VL: B1 VL with Y31N, F71Y, Y93G
notes: Fab
B23: 13-F12 (Fab, V domains shown)
VH: B1 VH
VL: B1 VL with Y31R, F71Y, Y93G
notes: Fab
B24: 12-H6 (Fab, V domains shown)
VH: B1 VH with G56R
VL: B1 VL with Y31R, F71Y, Y93G
notes: Fab
B25: 12-E5 (Fab, V domains shown)
VH: B1 VH
VL: B1 VL with N28P, Y31S, Y93G
notes: Fab
B26: 13-B4 (Fab, V domains shown)
VH: B1 VH with G56D, R57G, E59K, Y60E
VL: B1 VL with Y31M, F71Y
notes: Fab
B27: 16-C1 (Fab, V domains shown)
VH: B1 VH with G56D, R57G, R58T, E59K, R106K
VL: B1 VL with Y31S, F96W
notes: Fab
B28: 14-A6 (Fab, V domains shown)
VH: B1 VH with G56R
VL: B1 VL with R24H, Y31S, Y93G
notes: Fab
B29: 12-B5 (Fab, V domains shown)
VH: B1 VH with G56R, R58I
VL: B1 VL with Y31S, N32H, F71Y, Y93G
notes: Fab
B30: 13-H6 (Fab, V domains shown)
VH: B1 VH with G56D, R57G, E59K, Y60E
VL: B1 VL with Y31S, N32H, F71Y, W92V
notes: Fab
B31: 12-A8 (Fab, V domains shown)
VH: B1 VH with G56D, R57G, E59K, Y60E
VL: B1 VL with Y31S, Y93G
notes: Fab
B32: 16-A6 (Fab, V domains shown)
VH: B1 VH with G56D, R57G, R58T, E59K
VL: B1 VL with A25T, Y31S, Q55A, S56D, Y93A
notes: Fab

The target in this test is TrkB (Homo sapiens (Human), UniProt Q16620 32-430). The test can be described thus: koff of Fab at 25 C; T1/2=Log2/koff. The procedure, abridged: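 Monovalent Fab fragments were tested at 25° C by surface plasmon resonance on a Biacore instrument, against TrkB extracellular-domain monomer amine-coupled to the chip at low capacity. Fabs were injected low to high as a 3-fold serial dilution from 100 nM for 84 sec, with a 10 minute dissociation after the top sample. The dissociation half-life was calculated from koff, which was fitted to a Langmuir binding model in BIAevaluation. The formula used was T1/2 = Log 2/koff.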
Chain of TrkB (Q16620 32-430 limits assumed): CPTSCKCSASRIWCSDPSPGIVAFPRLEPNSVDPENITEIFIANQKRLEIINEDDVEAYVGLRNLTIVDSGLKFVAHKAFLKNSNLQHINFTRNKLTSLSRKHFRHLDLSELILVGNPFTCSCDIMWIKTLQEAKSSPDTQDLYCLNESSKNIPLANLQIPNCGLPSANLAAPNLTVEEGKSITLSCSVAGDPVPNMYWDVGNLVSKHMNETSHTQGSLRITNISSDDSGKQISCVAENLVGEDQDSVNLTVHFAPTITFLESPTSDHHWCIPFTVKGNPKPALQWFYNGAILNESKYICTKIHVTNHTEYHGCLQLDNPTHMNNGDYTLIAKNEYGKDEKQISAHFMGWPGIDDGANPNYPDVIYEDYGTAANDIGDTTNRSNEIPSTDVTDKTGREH
Turning to B1, the T1/2 stood at 5.9 min. To B2 belongs 8 min; to B3, 13 min; to B4, 4.8 min.

As to B5, the T1/2 was determined as 1.8 min.

In the case of B6, the T1/2 came to 13 min.

B7 yielded a T1/2 of 13 min. In the case of B8 it was 6 min; in that of B9, 10 min; in that of B10, 13 min.

B11 gave a T1/2 of 13 min. To B12 belongs 5 min. To B13 belongs 11 min; to B14, 13 min. B15: the T1/2 is 3 min. In the case of B16 it was 0.8 min.

B17 gave a T1/2 of 13 min. To B18 belongs 3.5 min; to B19, 2.1 min; to B20, 13 min.

With B21, the T1/2 turned out to be 13 min. To B22 belongs 13 min. To B23 belongs 13 min. In the case of B24 it was 12 min; in that of B25, 7.5 min; in that of B26, 13 min. As for B27, the T1/2 was 6 min.

Regarding B28, the T1/2 stood at 2.8 min. Regarding B29, the T1/2 was determined as 10 min. Molecule B30 gave a T1/2 of 13 min.

B31 gave a T1/2 of 3.3 min. To B32 belongs 1 min.
